Several values for one entry are separate records, joined by “and”; a condition that tells them apart may be missing. Equal values may be shown once.
Key:
[1] = target: Gammanorm 165 mg/ml (Octapharma), diluted to 1 mg/ml in Equilibration buffer; assay: column breakthrough, ligand on agarose, residence time 2.4 min
[2] = target: Gammanorm 165 mg/ml (Octapharma), diluted to 1 mg/ml in Equilibration buffer; assay: column breakthrough, ligand on agarose, residence time 6.0 min

Regular Z2: ligand dimer containing two copies of protein Z (SEQ ID No. 3 but without the P57I substitutions) (designed binder)
Qb5 (dynamic binding capacity at 5% breakthrough) [1]: 28.5 mg/ml resin and 29.9 mg/ml resin | Qb10 (dynamic binding capacity at 10% breakthrough) [1]: 31.4 mg/ml resin and 32.2 mg/ml resin | Qb80 (dynamic binding capacity at 80% breakthrough) [1]: 43.8 mg/ml resin and 46.1 mg/ml resin | Qb5 (dynamic binding capacity at 5% breakthrough) [2]: 38.1 mg/ml resin and 38.5 mg/ml resin | Qb10 (dynamic binding capacity at 10% breakthrough) [2]: 40.6 mg/ml resin and 40.4 mg/ml resin | Qb80 (dynamic binding capacity at 80% breakthrough) [2]: 46.7 mg/ml resin and 47.1 mg/ml resin

Reference: patent US20130245224A1
